Test results published in the supplement of paper PMC10567573.

B1: ZNF8 (parent)
chain: RTHTGEKPYTCSVCGKSFSRTTCL

Variants of: B1
Test: protein stability index of a GFP-peptide fusion (GPS, HEK-293T) (PSI 1-6); higher = more stable
Details: c terminus: a fixed tail appended
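Also: lentivirally expressed fusions sorted by FACS into six bins by GFP to DsRed ratio, PSI derived from sequencing read proportions per bin multiplied by bin number.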

Variant | protein stability index
RTHTGEKPYTCSVCGKVFSRTTCL [S17V] | 2.67
RTHTGEKPYTCSVCGKIFSRTTCL [S17I] | 2.17
RTHTGEKPYTCSVCGKHFSRTTCL [S17H] | 2.69
RTHTGEKPYTCSVCGKYFSRTTCL [S17Y] | 2.14
RTHTGEKPYTCSVCGKEFSRTTCL [S17E] | 2.4
RTHTGEKPYTCSVCGKWFSRTTCL [S17W] | 1.82
RTHTGEKPYTCSVCGKKFSRTTCL [S17K] | 2.87
RTHTGEKPYTCSVCGKGFSRTTCL [S17G] | 1.73
RTHTGEKPYTCSVCGKTFSRTTCL [S17T] | 2.63
RTHTGEKPYTCSVCGKCFSRTTCL [S17C] | 3.72
RTHTGEKPYTCSVCGKRFSRTTCL [S17R] | 2.77
RTHTGEKPYTCSVCGKNFSRTTCL [S17N] | 2.36
RTHTGEKPYTCSVCGKMFSRTTCL [S17M] | 2.03
RTHTGEKPYTCSVCGKLFSRTTCL [S17L] | 2.34
RTHTGEKPYTCSVCGKFFSRTTCL [S17F] | 1.48
RTHTGEKPYTCSVCGKAFSRTTCL [S17A] | 2.48
RTHTGEKPYTCSVCGKDFSRTTCL [S17D] | 2.55
RTHTGEKPYTCSVCGKPFSRTTCL [S17P] | 3.07
RTHTGEKPYTCSVCTKSFSRTTCL [G15T] | 1.65
RTHTGEKPYTCSVCPKSFSRTTCL [G15P] | 2.57
RTHTGEKPYTCSVCSKSFSRTTCL [G15S] | 1.87
RTHTGEKPYTCSVCCKSFSRTTCL [G15C] | 1.83
RTHTGEKPYTCSVCLKSFSRTTCL [G15L] | 1.99
RTHTGEKPYTCSVCFKSFSRTTCL [G15F] | 2.28

Variant | protein stability index
RTHTGEKPYTCSVCMKSFSRTTCL [G15M] | 1.6
RTHTGEKPYTCSVCDKSFSRTTCL [G15D] | 2.36
RTHTGEKPYTCSVCRKSFSRTTCL [G15R] | 2.17
RTHTGEKPYTCSVCQKSFSRTTCL [G15Q] | 1.75
RTHTGEKPYTCSVCYKSFSRTTCL [G15Y] | 1.32
RTHTGEKPYTCSVCWKSFSRTTCL [G15W] | 1.43
RTHTGEKPYTCSVCKKSFSRTTCL [G15K] | 2.25
RTHTGEKPYTCSVCHKSFSRTTCL [G15H] | 1.81
RTHTGEKPYTCSVCAKSFSRTTCL [G15A] | 1.88
RTHTGEKPYTCSVCEKSFSRTTCL [G15E] | 2.15
RTHTGEKPYTCSVCIKSFSRTTCL [G15I] | 1.46
RTHTGEKPYTCSVCNKSFSRTTCL [G15N] | 1.92
RTHTGEKPYTCSVCVKSFSRTTCL [G15V] | 1.73
RTHTGEKPYTCSVCGYSFSRTTCL [K16Y] | 1.87
RTHTGEKPYTCSVCGRSFSRTTCL [K16R] | 2.45
RTHTGEKPYTCSVCGASFSRTTCL [K16A] | 1.85
RTHTGEKPYTCSVCGCSFSRTTCL [K16C] | 2.16
RTHTGEKPYTCSVCGLSFSRTTCL [K16L] | 2.09
RTHTGEKPYTCSVCGVSFSRTTCL [K16V] | 1.96
RTHTGEKPYTCSVCGWSFSRTTCL [K16W] | 1.84
RTHTGEKPYTCSVCGSSFSRTTCL [K16S] | 1.75
RTHTGEKPYTCSVCGNSFSRTTCL [K16N] | 2.58
RTHTGEKPYTCSVCGGSFSRTTCL [K16G] | 2.41
RTHTGEKPYTCSVCGDSFSRTTCL [K16D] | 2.08

Variant | protein stability index
RTHTGEKPYTCSVCGPSFSRTTCL [K16P] | 1.81
RTHTGEKPYTCSVCGQSFSRTTCL [K16Q] | 2.6
RTHTGEKPYTCSVCGFSFSRTTCL [K16F] | 1.77
RTHTGEKPYTCSVCGTSFSRTTCL [K16T] | 1.94
RTHTGEKPYTCSVCGESFSRTTCL [K16E] | 2.61
RTHTGEKPYTCSVCGHSFSRTTCL [K16H] | 1.99
RTHTGEKPYTCSVCGMSFSRTTCL [K16M] | 2.2
RTHTGEKPYTCSVCGISFSRTTCL [K16I] | 1.74
RTHTGEKPYTCSVMGKSFSRTTCL [C14M] | 2.88
RTHTGEKPYTCSVPGKSFSRTTCL [C14P] | 2.82
RTHTGEKPYTCSVEGKSFSRTTCL [C14E] | 2.46
RTHTGEKPYTCSVLGKSFSRTTCL [C14L] | 2.76
RTHTGEKPYTCSVDGKSFSRTTCL [C14D] | 2.77
RTHTGEKPYTCSVRGKSFSRTTCL [C14R] | 2.19
RTHTGEKPYTCSVIGKSFSRTTCL [C14I] | 2.34
RTHTGEKPYTCSVWGKSFSRTTCL [C14W] | 1.42
RTHTGEKPYTCSVQGKSFSRTTCL [C14Q] | 2.17
RTHTGEKPYTCSVSGKSFSRTTCL [C14S] | 2.41
RTHTGEKPYTCSVTGKSFSRTTCL [C14T] | 2.46
RTHTGEKPYTCSVHGKSFSRTTCL [C14H] | 2.89
RTHTGEKPYTCSVGGKSFSRTTCL [C14G] | 1.99
RTHTGEKPYTCSVKGKSFSRTTCL [C14K] | 3.06
RTHTGEKPYTCSVAGKSFSRTTCL [C14A] | 2.17
RTHTGEKPYTCSVVGKSFSRTTCL [C14V] | 3.13

Variant | protein stability index
RTHTGEKPYTCSVFGKSFSRTTCL [C14F] | 2.1
RTHTGEKPYTCSVNGKSFSRTTCL [C14N] | 2.87
RTHTGEKPYTCSVYGKSFSRTTCL [C14Y] | 2.06
RTHTGEKPYTCSVCGKSFYRTTCL [S19Y] | 2.33
RTHTGEKPYTCSVCGKSFFRTTCL [S19F] | 2.64
RTHTGEKPYTCSVCGKSFMRTTCL [S19M] | 2.5
RTHTGEKPYTCSVCGKSFRRTTCL [S19R] | 3.8
RTHTGEKPYTCSVCGKSFGRTTCL [S19G] | 2.35
RTHTGEKPYTCSVCGKSFTRTTCL [S19T] | 2.41
RTHTGEKPYTCSVCGKSFDRTTCL [S19D] | 2.79
RTHTGEKPYTCSVCGKSFKRTTCL [S19K] | 2.45
RTHTGEKPYTCSVCGKSFLRTTCL [S19L] | 2.51
RTHTGEKPYTCSVCGKSFIRTTCL [S19I] | 2.07
RTHTGEKPYTCSVCGKSFCRTTCL [S19C] | 3.7
RTHTGEKPYTCSVCGKSFQRTTCL [S19Q] | 2.65
RTHTGEKPYTCSVCGKSFHRTTCL [S19H] | 2.59
RTHTGEKPYTCSVCGKSFPRTTCL [S19P] | 2.26
RTHTGEKPYTCSVCGKSFVRTTCL [S19V] | 3.91
RTHTGEKPYTCSVCGKSFARTTCL [S19A] | 1.36
RTHTGEKPYTCSVCGKSFNRTTCL [S19N] | 2.67
RTHTGEKPYTCSVCGKSFWRTTCL [S19W] | 2.42
RTHTGEKPYTCSVCGKSFERTTCL [S19E] | 2.67
